Square brackets hold non-standard residues; d marks the D form. Ends that are not written are not given here. pY = N[C@@H](Cc1ccc(OP(=O)(O)O)cc1)C(=O)O
Experiments:
[1] = target: GST-β5cyto (GST fusion protein of the integrin β5 cytoplasmic domain) (UniProt P18084); assay: phage colonies recovered from β5-GST-coated wells divided by those from BSA wells
[2] = target: GST-β5cyto (GST fusion protein of the integrin β5 cytoplasmic domain) (UniProt P18084); assay: phage colonies recovered from β5-GST-coated wells divided by those from GST wells
[3] = target: T1, GST-β3cyto (GST fusion protein of the integrin β3 cytoplasmic domain) (UniProt O54890); assay: phage colonies recovered from β3-GST-coated wells divided by those from GST wells
T1 sequence: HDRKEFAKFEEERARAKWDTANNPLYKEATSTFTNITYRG

[4] = target: T1, GST-β3cyto (GST fusion protein of the integrin β3 cytoplasmic domain); assay: phage colonies recovered from β3-GST-coated wells divided by those from BSA wells
[5] = target: T1, GST-β3cyto (GST fusion protein of the integrin β3 cytoplasmic domain); assay: β3 colonies divided by BSA colonies after panning
[6] = target: T1, GST-β3cyto (GST fusion protein of the integrin β3 cytoplasmic domain); assay: colonies of Fyn-phosphorylated phage divided by those of unphosphorylated phage bound to the β3 cytoplasmic domain
[7] = target: T1, GST-β3cyto (GST fusion protein of the integrin β3 cytoplasmic domain); assay: β3 colonies divided by GST colonies after panning
[8] = target: GST-β5cyto (GST fusion protein of the integrin β5 cytoplasmic domain) (UniProt P18084); assay: competition ELISA on GST-β5-coated plates, in the absence of calcium
[9] = target: GST-β5cyto (GST fusion protein of the integrin β5 cytoplasmic domain) (UniProt P18084); assay: competition ELISA on GST-β5-coated plates, in the presence of calcium
[10] = target: Aminopeptidase A (APA, EC 3.4.11.7) on cells (UniProt Q07075); assay: phage binding to SK-RC-49/APA cells in suspension, phage rescued and counted (not shown)
[11] = target: GST-β5cyto (GST fusion protein of the integrin β5 cytoplasmic domain) (UniProt P18084); assay: colonies of Fyn-phosphorylated phage divided by those of unphosphorylated phage bound to the β5 cytoplasmic domain
[12] = target: GST-β5cyto (GST fusion protein of the integrin β5 cytoplasmic domain) (UniProt P18084); assay: β5 colonies divided by GST colonies after panning
[13] = target: GST-β5cyto (GST fusion protein of the integrin β5 cytoplasmic domain) (UniProt P18084); assay: β5 colonies divided by BSA colonies after panning
[14] = target: Aminopeptidase A (APA, EC 3.4.11.7) on cells (UniProt Q07075 1-957, limits assumed); assay: cell-based or functional assay
Chain of Aminopeptidase A (APA, EC 3.4.11.7) on cells (UniProt Q07075 1-957, limits assumed) (Q07075 whole entry): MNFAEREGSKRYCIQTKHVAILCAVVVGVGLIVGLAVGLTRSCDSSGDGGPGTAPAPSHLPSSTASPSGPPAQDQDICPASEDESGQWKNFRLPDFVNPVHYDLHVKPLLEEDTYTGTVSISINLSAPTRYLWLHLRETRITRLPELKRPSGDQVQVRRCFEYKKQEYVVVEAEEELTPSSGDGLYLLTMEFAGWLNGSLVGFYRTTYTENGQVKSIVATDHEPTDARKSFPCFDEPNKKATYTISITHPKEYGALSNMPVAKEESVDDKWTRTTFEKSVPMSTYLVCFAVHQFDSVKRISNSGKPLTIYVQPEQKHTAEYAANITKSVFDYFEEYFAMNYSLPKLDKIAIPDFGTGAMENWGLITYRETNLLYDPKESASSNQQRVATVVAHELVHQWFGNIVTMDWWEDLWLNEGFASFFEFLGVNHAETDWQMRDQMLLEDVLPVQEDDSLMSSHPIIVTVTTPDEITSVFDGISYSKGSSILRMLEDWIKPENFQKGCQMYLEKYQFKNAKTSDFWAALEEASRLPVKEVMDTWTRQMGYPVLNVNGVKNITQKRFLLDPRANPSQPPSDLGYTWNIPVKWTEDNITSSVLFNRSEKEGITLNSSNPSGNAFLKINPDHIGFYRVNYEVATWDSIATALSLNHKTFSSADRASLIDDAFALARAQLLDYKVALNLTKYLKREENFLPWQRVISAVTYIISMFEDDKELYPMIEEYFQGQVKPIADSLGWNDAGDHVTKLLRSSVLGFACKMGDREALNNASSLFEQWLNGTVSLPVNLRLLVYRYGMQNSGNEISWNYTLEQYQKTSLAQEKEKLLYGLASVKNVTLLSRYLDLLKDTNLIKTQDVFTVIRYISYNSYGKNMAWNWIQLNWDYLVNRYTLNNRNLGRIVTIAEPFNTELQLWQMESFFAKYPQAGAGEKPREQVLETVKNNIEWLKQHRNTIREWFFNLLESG

Chain of GST-β5cyto (GST fusion protein of the integrin β5 cytoplasmic domain) (P18084 other isoform, or with tags, fused parts or gaps): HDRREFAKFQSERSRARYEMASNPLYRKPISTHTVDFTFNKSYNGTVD
Chain of Aminopeptidase A (APA, EC 3.4.11.7) on cells (UniProt Q07075) (Q07075 whole entry, the tested form may be a part): as the sequence (Q07075 whole entry) above

Binder CWDQNYLDDC [phage displaying … (SEQ ID NO:109)] has a β5/BSA Ratio [1] of 100 and a β5/GST Ratio [2] of 1.5.

CFQNRC [phage displaying CFQNRC (SEQ ID NO:102)] gave a β3/GST Ratio [3] of 3.1 and a β3/BSA Ratio [4] of 16.

Work on SDNRYIGSW [phage displaying … (SEQ ID NO:97)] yielded a β3/GST Ratio [3] of 3.3 and a β3/BSA Ratio [4] of 32.

For RAIL[pY]RLAN (also: tyrosine phosphorylated in vitro with Fyn kinase) [Fyn-phosphorylated phage displaying … (SEQ ID NO:116)], the β3 or β5/BSA [5] was 20, the Phos/Unphos [6] was 2.8 and the β3 or β5/GST [7] was 1.3.

Binder CLRQSYSYNC [phage displaying … (SEQ ID NO:104)] has a β3/GST Ratio [3] of 2.4 and a β3/BSA Ratio [4] of 3.2.

With VVISYSMPD [VISY peptide (…, SEQ ID NO:112)] the % inhibition of Annexin V binding to GST-β5 [8] was 45% and the % inhibition of Annexin V binding to GST-β5 [9] was 67%.

Work on CEPYWDGWFC [phage displaying … (SEQ ID NO:106)] yielded a β5/BSA Ratio [1] of 400 and a β5/GST Ratio [2] of 3.1.

DEEGYYMMR [phage displaying … (SEQ ID NO:110)] gave a β5/BSA Ratio [1] of 29 and a β5/GST Ratio [2] of 11.5.

For VVISYSMPD [phage displaying … (SEQ ID NO:112)], the β5/BSA Ratio [1] was 28 and the β5/GST Ratio [2] was 3.8.

With KVSWYLDNG [phage displaying … (SEQ ID NO:99)] the β3/GST Ratio [3] was 2.1 and the β3/BSA Ratio [4] was 20.

CPKVCPRECESNC [phage displaying … (SEQ ID NO:127)] was tested, and the fold enrichment relative to SK-RC-49 parental cells [10] was 6 fold.

CYNLCIRECESICGADGACWTWCADGCSRSC [phage displaying … (SEQ ID NO:125)] was tested, and the fold enrichment relative to SK-RC-49 parental cells [10] was 6 fold.

Binder CYIWPDSGLC [phage displaying … (SEQ ID NO:105)] has a β5/BSA Ratio [1] of 193 and a β5/GST Ratio [2] of 5.2.

Work on CARLEVLLPC [phage displaying … (SEQ ID NO:94)] yielded a β3/GST Ratio [3] of 2.8 and a β3/BSA Ratio [4] of 18.7.

For SDWYYPWSW [phage displaying … (SEQ ID NO:100), selected on β3], the β3/GST Ratio [3] was 2.1 and the β3/BSA Ratio [4] was 157.

For TLRK[pY]FHSS (also: tyrosine phosphorylated in vitro with Fyn kinase) [Fyn-phosphorylated phage displaying … (SEQ ID NO:121)], the Phos/Unphos [11] was 1.8, the β3 or β5/GST [12] was 5.6 and the β3 or β5/BSA [13] was 7.3.

Binder KQFSYRYLL [phage displaying … (SEQ ID NO:111)] has a β5/BSA Ratio [1] of 8 and a β5/GST Ratio [2] of 4.5.

SDWYYPWSW [phage displaying … (SEQ ID NO:113), selected on β5] was tested, and the β5/BSA Ratio [1] was 304 and the β5/GST Ratio [2] was 2.4.

CEQRQTQEGC [phage displaying … (SEQ ID NO:93)] showed a β3/GST Ratio [3] of 4.3 and a β3/BSA Ratio [4] of 14.

In the case of GLDTYRGSP [phage displaying … (SEQ ID NO:96)], the β3/GST Ratio [3] is reported as 4.1 and the β3/BSA Ratio [4] is reported as 48.

B1: CPRECESIC (SEQ ID NO:123) soluble peptide (peptide)
peptide: CPRECESIC
modifications: disulfide (positions not given here); also: mixture of disulfide isomers and dimers
With B1 the “APA enzyme activity on SK-RC-49/APA cells (α-glutamyl-p-nitroanilide, colorimetric), IC50” value [14] was 800 µM.

In the case of CLGQCASICVNDC [phage displaying … (SEQ ID NO:126)], the fold enrichment relative to SK-RC-49 parental cells [10] is reported as 6 fold.

YDWWYPWSW [phage displaying … (SEQ ID NO:95)] was tested, and the β3/GST Ratio [3] was 5.6 and the β3/BSA Ratio [4] was 163.

For YEWWYWSWA [phage displaying … (SEQ ID NO:98)], the β3/GST Ratio [3] was 2.2 and the β3/BSA Ratio [4] was 28.1.

For CNLSSEQC [phage displaying CNLSSEQC (SEQ ID NO:103)], the β3/GST Ratio [3] was 2.7 and the β3/BSA Ratio [4] was 62.

Reference: patent EP2028187A1 (BOARD OF REGENTS, THE UNIVERSITY OF TEXAS SYSTEM, dated 2009)
